Target: T1, HA-tagged human Raf1 S259A (human, UniProt P04049 1-648)
T1 construct: Overexpressed in HUVEC by lentivirus, immunoprecipitated from Triton lysates with anti-HA; also called Raf1SA; RAF1 Ser259 to Ala259 mutant; not shown: HA (hemagglutinin) tag
Experiment: co-immunoprecipitation (anti-HA) from lentivirus-infected HUVEC lysates, western blot

B1: 14-3-3 (other, human, UniProt P63104 1-245, looked up)
chain: MDKNELVQKAKLAEQAERYDDMAACMKSVTEQGAELSNEERNLLSVAYKNVVGARRSSWRVVSSIEQKTEGAEKKQQMAREYREKIETELRDICNDVLSLLEKFLIPNASQAESKVFYLKMKGDYYRYLAEVAAGDDKKGIVDQSQQAYQEAFEISKKEMQPTHPIRLGLALNFSVFYYEILNSPEKACSLAKTAFDEAIAELDTLSEESYKDSTLIMQLLRDNLTLWTSDTQGDEAEAGEGGEN
notes: The results speak only of '14-3-3'; the zeta isoform is inferred from the antibody list; Endogenous protein in the cell lysate; also called 14-3-3 protein; 14-3-3ζ
binding result: no binding
